In test [1] the target is torsinA (endogenous, mouse fibroblasts) (mouse (endogenous in MFs)) (UniProt Q9ER39). In words: co-IP.
Test [2] addresses YFP-human-nesprin-3 (human) (UniProt Q6ZMZ3). In words: co-IP.

torsinAΔE (human, expressed in 293T cells), sequence (O14656 21-332, stated change not applied): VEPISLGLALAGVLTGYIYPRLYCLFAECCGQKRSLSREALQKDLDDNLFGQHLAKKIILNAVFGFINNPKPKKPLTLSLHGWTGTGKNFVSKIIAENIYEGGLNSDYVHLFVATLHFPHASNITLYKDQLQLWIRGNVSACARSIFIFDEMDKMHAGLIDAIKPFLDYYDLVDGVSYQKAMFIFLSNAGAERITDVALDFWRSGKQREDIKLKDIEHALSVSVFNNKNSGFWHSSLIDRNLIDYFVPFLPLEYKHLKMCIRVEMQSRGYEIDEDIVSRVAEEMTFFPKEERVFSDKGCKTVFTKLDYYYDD
YFP-human-nesprin-3 (human), sequence (Q6ZMZ3 whole entry): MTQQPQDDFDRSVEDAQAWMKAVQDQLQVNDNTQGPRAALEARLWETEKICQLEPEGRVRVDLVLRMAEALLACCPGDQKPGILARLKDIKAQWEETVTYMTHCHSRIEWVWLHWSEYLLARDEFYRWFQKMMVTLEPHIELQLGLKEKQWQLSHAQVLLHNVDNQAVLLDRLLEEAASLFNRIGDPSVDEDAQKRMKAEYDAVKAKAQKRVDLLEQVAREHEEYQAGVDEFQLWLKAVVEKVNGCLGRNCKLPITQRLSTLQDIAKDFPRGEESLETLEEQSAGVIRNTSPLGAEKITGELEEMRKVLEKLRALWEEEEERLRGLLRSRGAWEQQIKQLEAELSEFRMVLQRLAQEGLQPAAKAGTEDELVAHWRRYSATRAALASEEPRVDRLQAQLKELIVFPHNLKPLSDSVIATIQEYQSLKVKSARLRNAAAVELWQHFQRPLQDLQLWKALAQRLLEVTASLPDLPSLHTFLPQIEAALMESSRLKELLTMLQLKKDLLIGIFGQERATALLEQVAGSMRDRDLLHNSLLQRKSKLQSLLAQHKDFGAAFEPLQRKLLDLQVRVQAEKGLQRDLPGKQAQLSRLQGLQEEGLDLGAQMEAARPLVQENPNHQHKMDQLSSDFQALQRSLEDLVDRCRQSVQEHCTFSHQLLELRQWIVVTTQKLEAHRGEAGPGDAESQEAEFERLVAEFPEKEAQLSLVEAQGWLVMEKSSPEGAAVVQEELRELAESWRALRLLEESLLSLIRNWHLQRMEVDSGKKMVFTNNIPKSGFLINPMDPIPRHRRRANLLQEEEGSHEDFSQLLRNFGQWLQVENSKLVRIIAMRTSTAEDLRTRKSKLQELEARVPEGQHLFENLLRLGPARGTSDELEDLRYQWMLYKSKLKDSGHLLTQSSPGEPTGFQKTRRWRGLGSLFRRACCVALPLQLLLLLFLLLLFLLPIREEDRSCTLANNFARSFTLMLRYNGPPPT
torsinA (endogenous, mouse fibroblasts) (mouse (endogenous in MFs)), sequence (Q9ER39 21-333): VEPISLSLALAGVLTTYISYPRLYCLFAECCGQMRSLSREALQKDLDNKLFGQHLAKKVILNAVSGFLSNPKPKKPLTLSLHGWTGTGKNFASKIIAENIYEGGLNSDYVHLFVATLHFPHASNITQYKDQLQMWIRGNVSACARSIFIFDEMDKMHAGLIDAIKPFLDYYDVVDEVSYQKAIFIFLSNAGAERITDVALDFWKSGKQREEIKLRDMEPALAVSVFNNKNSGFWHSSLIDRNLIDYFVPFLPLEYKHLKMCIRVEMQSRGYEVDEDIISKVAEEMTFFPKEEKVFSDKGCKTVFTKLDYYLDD

In the case of “plectin (endogenous, mouse fibroblasts), Q9QXS1 1-4691”, the percentage immunoprecipitated from lysates in test [1] came to 7%.
For the substance “torsinAΔE (human, expressed in 293T cells) (from UniProt O14656 21-332) (natural protein)”, the percentage immunoprecipitated with YFP-nesprin-3 in the presence of ATP in test [2] was 25%.

Values taken from article PMC3539201.
